Experimental data from paper PMC11570694.

Experiments:
[1] = target: recombinant TTC5 labelled with Oregon Green 488 maleimide (human) (UniProt Q8N0Z6); assay: MST; 50 nM Oregon Green 488-labelled TTC5 with various porcine tubulin concentrations in 250 mM NaCl, 1 mM TCEP, 20 mM HEPES pH 7.4; duplicates
[2] = target: endogenous TTC5 of rabbit reticulocyte lysate (rabbit (endogenous in rabbit reticulocyte lysate)) (UniProt G1SNQ6); assay: cross-linking; competition: porcine brain tubulin at the indicated concentrations added to isolated β-tubulin 94-mer RNCs (Bpa at position 7) carrying endogenous TTC5, 10 min on ice in PSB, then UV; autoradiography, anti-TTC5 immunoprecipitation
Chain of endogenous TTC5 of rabbit reticulocyte lysate (rabbit (endogenous in rabbit reticulocyte lysate)) (G1SNQ6 entry or part of it): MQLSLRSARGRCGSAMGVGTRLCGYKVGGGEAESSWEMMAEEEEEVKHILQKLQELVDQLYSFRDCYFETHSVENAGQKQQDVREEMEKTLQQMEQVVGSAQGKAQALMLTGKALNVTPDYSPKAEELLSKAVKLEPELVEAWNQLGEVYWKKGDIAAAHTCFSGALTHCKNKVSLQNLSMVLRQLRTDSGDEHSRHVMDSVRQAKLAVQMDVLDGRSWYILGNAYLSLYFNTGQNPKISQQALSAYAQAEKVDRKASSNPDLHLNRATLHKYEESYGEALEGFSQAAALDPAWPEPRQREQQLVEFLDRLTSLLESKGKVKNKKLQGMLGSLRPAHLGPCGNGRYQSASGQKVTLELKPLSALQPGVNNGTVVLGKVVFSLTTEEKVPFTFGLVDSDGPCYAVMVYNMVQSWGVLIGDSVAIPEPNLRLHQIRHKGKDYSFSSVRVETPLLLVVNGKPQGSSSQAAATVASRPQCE

Chain of recombinant TTC5 labelled with Oregon Green 488 maleimide (human) (Q8N0Z6 whole entry): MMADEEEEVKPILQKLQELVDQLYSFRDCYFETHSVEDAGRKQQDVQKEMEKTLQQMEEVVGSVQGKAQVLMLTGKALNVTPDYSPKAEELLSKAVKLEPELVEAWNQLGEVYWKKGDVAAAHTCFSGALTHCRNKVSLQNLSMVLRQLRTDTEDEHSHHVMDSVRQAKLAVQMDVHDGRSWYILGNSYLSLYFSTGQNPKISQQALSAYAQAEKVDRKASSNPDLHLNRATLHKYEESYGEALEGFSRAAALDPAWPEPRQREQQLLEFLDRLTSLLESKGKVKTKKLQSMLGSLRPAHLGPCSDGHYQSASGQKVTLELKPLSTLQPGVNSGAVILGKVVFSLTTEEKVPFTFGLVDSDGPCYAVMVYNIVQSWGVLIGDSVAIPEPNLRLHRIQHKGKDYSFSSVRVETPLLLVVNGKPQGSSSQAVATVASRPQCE

- Kd [1]: 500 nM
- Ki [2]: 500 nM
Substance: porcine brain αβ-tubulins (from UniProt P02550 1-451; Q767L7 1-444) (complex)
